{"source": "patent US20180112193A1", "about": "“CSF1 THERAPEUTICS” (University Court Of The University Of Edinburgh, priority 2013, published 2018)", "key": {"neonatal pigs": {"system": "neonatal pigs", "assay": "Fc-CSF-1 efficacy/safety treatment trial in neonatal pigs", "assay_type": "in vivo, pig", "protocol": "Further tests were conducted to assess Fc-CSF-1 efficacy/safety treatment trial in neonatal pigs. At the two doses tested (0.12 mg/Kg×3 and 0.5 mg/Kg×6) the Fc-CSF-1 treatment had little effect on body weight gain at any time point. […] It was noted that in the control animals, that the total blood cell count, monocyte count and granulocyte count declines in the first two weeks of life in the pig."}, "mouse bone marrow cells": {"system": "mouse bone marrow cells", "assay": "Proliferation of mouse bone marrow cells", "assay_type": "cell-based", "conditions": "data not shown", "protocol": "Stable Ba/F3 cells expressing porcine CSF-1R were maintained in culture with complete RPMI supplemented with either 10^4 Units/ml rh-CSF-1 or 10% IL-3 conditioned medium prior to MTT assay. 2×10^4 cells/well (Ba/F3 cells and Ba/F3 transfectants), or 5×10^4 cells/well (pig BMM) of a 96 well plate were plated in triplicate or quadruplicate and appropriate treatment (serial dilutions of rh-CSF-1 or porcine Fc CSF-1 were added to make a total volume of 100 μl per well. Cells were incubated for 48 hours at 37° C. with 5% CO2. For Ba/F3 cells, 10 μl of MTT (Sigma Aldrich M5655) stock solution (5 mg/ml) was added directly to each well to achieve a final concentration of 0.5 mg/ml and incubated at 37° C. for 3 hours prior to solubilisation overnight. For adherent mouse BMM cells, culture medium was replaced with 50 μl of 1 mg/ml MTT solution and incubated for 1 hour at 37° C. MTT solution was removed and tetrazolium salt solubilised with 100 μl of solubilisation agent (0.1M HCL, 10% Triton x-100 and isopropanol) followed by incubation at 37° C. with 5% CO2 for 10 minutes. Plates were read at 570 nm with reference wavelength of 405 nm.\nMice were injected with Fc-CSF-1 subcutaneously on each of 4 days and sacrificed on the 5th day. The mice were csf1r-EGFP (MacGreen) mice on the C57BI/6 background. […]"}, "Pig PK (plasma ELISA)": {"assay": "Pig PK (plasma ELISA)", "assay_type": "in vivo", "conditions": "weaner pigs; 1.2 mg/kg IV and SC", "protocol": "Porcine CSF-1 Fc-fusion plasma levels were detected using an in-house developed conventional sandwich ELISA utilizing commercially available antibodies. Capture antibody was Abcam ab9693 (0.3 μg/mL) and detection antibody was Rabbit anti-pig IgG (Fc) biotinylated Alpha Diagnostic 90440 (1:5000 dilution). Standard protein was generated and purified in-house (lot 2/24/11 JAS). Standards were added to each plate along with the samples resulting in an 11 point standard range of 2700 ng/mL to […]. This allowed for quantitation of each sample to a standard curve on every assay plate. Assay detection was done using Pierce High Sensitivity Streptavidin-HRP (1:10,000 dilution) and TMB Microwell Peroxidase Substrate System solution (KPL).\nWeaner age barrows (<14 kg) were assigned to three treatment groups receiving a single intravenous (IV) or subcutaneous (SC) dose as follows. Three pigs received 0.5 mg/kg CSF-1 non-fusion dosed SC. Two pigs received 1.2 mg/kg CSF-1:Fc fusion dosed IV. Two pigs received 1.2 mg/kg CSF-1:Fc dosed SC. One ml plasma samples were obtained via the V. jugularis in EDTA anticoagulant tubes and placed on ice until centrifuged. The plasma was transferred to sterile tubes stored at ≤−10° C. until analysis. Serial plasma samples were obtained from each animal at pre-dose and 5 minutes, 30 minutes, 1 hour, 2 hours, 4 hours, 6 hours, 8, hours, 24 hours, 48 hours, and 72 hours post-dose. CSF-1 and CSF-1:Fc fusion protein levels were quantitated in plasma using ELISA assays."}, "[1]": {"system": "csf1r-EGFP (MacGreen) mice", "assay": "Fc-CSF-1 injected subcutaneously into csf1r-EGFP mice on 4 days, sacrificed on the 5th day", "assay_type": "in vivo, mouse", "protocol": "Mice were injected with Fc-CSF-1 subcutaneously on each of 4 days and sacrificed on the 5th day. The mice were csf1r-EGFP (MacGreen) mice on the C57BI/6 background. Tissue processing and immunohistochemistry were carried out as described in (Alikhan et al Am J. Pathol. 179, 1243-1256, 2011 and Macdonald et al Blood. 116, 3955-3963, 2010). A comparison of the effect of recombinant pig CSF-1 or Fc-CSF-1 on the proliferation of mouse bone marrow cells or the Ba/F3 CS1R reporter cell line using the assay described in Gow et al Cytokine."}, "C57BI6 male mice": {"system": "C57BI6 male mice", "assay": "Hepatic phagocytic ability after partial hepatectomy (gene analysis, bead clearance assay, ex vivo imaging)", "assay_type": "in vivo, mouse", "protocol": "C57BI6 male mice (8-10 weeks) underwent either partial hepatectomy (⅔ resection) or paracetamol intoxication (350 mg/kg intraperitoneal following overnight fast). CSF1-Fc was administered as previous (0.75 mg/kg). Gene analysis was performed using Qiagen Quantitect Primers (MSR1 and MARCO) and related to GAPDH level for each sample. […] 0.1 mls of 5000 IU/ml heparin solution was infused to prevent blockage of the catheter. 100 μl of red fluorescent bead solution (1:5 Latex beads 1.0 μm, fluorescent red, SIGMA-ALDRICH®) was infused through the cannula (1:2 solution for assay following paracetamol injury). 20 mcl of blood was removed from the cannula every two minutes starting from 1 minute post injection for 15 minutes. Blood was immediately fixed with 300 μl FACS-Lysing solution (BD Biosceinces). After 15 minutes mice were perfused with 15 mls 0.9% saline through the IVC cannula after dividing the portal vein for outflow. Organs were then removed (Liver, spleen, lungs, kidney, brain) and imaged with a Kodak In-Vivo Multispectral FX image station (Excitation: 550 nm; Emission: 600 nm; Exposure 1 sec; f-stop 2.8). Subsequently blood samples were analysed using a LSR-Fortessa™ flow cytometer (BD Biosciences) with fluorescent beads detected on the blue channel (B695/40) by a 1 minute sample collection on low flow rate setting."}, "[2]": {"conditions": "0.12 mg/Kg×3, end of the experiment"}, "[3]": {"conditions": "1 mg/kg, whole group or segregated for male or female"}, "[4]": {"conditions": "day 2 following partial hepatectomy"}}}
{"molecule": "Fc-CSF-1: active fragment of porcine CSF-1 (SEQ ID NO:1) linked to the hinge-CH3 region of porcine IgG1a (SEQ ID NO:2) (protein, listed as Sus scrofa) SENCSHMIGDGHLKVLQQLIDSQMETSCQIAFEFVDQEQLTDPVCYLKKAFLQVQDILDETMRFRDNTPNANVIVQLQELSLRLNSCFTKDYEEQDKACVRTFYETPLQLLEKIKNVFNETKNLLKKDWNIFSKNCNNSFAKCSSQHERQPEGRGTKTKPPCPICPGCEVAGPSVFIFPPKPKDTLMISQTPEVTCVVVDVSKEHAEVQFSWYVDGVEVHTAETRPKEEQFNSTYRVVSVLPIQHQDWLKGKEFKCKVNNVDLPAPITRTISKAIGQSREPQVYTLPPPAEELSRSKVTVTCLVIGFYPPDIHVEWKSNGQPEPEGNYRTTPPQQDVDGTFFLYSKLAVDKARWDHGETFECAVMHEALHNHYTQKSISKTQGK", "values": [{"measurement": "kidney weight", "setting": "neonatal pigs; [2]", "value": "did not alter"}, {"measurement": "liver weight", "setting": "neonatal pigs; [2]", "value": "did not alter"}, {"measurement": "lung weight", "setting": "neonatal pigs; [2]", "value": "did not alter"}, {"measurement": "spleen weight", "setting": "neonatal pigs; [2]", "value": "did not alter"}, {"measurement": "body weight gain", "setting": "neonatal pigs; 0.12 mg/Kg×3 and 0.5 mg/Kg×6, any time point", "value": "little effect"}, {"measurement": "granulocyte count", "setting": "neonatal pigs; blood, vs control animals", "value": "increased"}, {"measurement": "lymphocyte count", "setting": "neonatal pigs; blood, vs control animals", "value": "increased"}, {"measurement": "monocyte count", "setting": "neonatal pigs; blood, vs control animals", "value": "increased"}, {"measurement": "weight gain", "setting": "neonatal pigs; higher dose (0.5 mg/Kg×6), data not shown", "value": "marginal decrease"}, {"measurement": "histiocytes in the liver (pathology report)", "setting": "neonatal pigs; liver", "value": "increased numbers"}, {"measurement": "biological activity (proliferation) compared with recombinant pig CSF-1", "setting": "mouse bone marrow cells", "value": "no difference in biological activity"}, {"measurement": "plasma concentrations relative to unmodified CSF-1", "setting": "Pig PK (plasma ELISA)", "value": 100, "unit": "fold"}, {"measurement": "time plasma level remains elevated", "setting": "Pig PK (plasma ELISA)", "value": "up to 72 hours"}, {"measurement": "body weight, dose response curve", "setting": "[1]; 0.1 mg/kg", "value": "detectable activity"}, {"measurement": "total body weight", "setting": "[1]; 1 mg/kg", "value": "clearly increased total body weight"}, {"measurement": "total liver weight", "setting": "[1]; 1 mg/kg", "value": "significantly increased"}, {"measurement": "weight of the spleen", "setting": "[1]; 1 mg/kg", "value": "almost doubled"}, {"measurement": "weight of the kidney", "setting": "[1]; [3]", "value": "no effect"}, {"measurement": "weight of the lung", "setting": "[1]; [3]", "value": "no effect"}, {"measurement": "segmented neutrophil counts", "setting": "[1]; blood", "value": "increases"}, {"measurement": "total lymphocytes", "setting": "[1]; blood", "value": "no effect"}, {"measurement": "total blood monocyte count", "setting": "[1]; blood, both sexes", "value": "elevates"}, {"measurement": "white blood cell count", "setting": "[1]; blood, both sexes", "value": "elevates"}, {"measurement": "bone resorbing osteoclasts in bone", "setting": "[1]; growth plate, zone of resorption and shaft, data not shown", "value": "increase"}, {"measurement": "increase in abundance of macrophage-specific genes (csf1r, emr1 (F4/80))", "setting": "[1]; liver, Affymetrix microarrays", "value": "4-8 fold"}, {"measurement": "induction of classical inflammatory genes such as TNF-a, IL-6 or IL-1", "setting": "[1]; liver, Affymetrix microarrays", "value": "no evidence of induction"}, {"measurement": "cell proliferation in liver, PCNA immunostaining", "setting": "[1]; liver, proliferating cells identified as hepatocytes", "value": "extensive cell proliferation"}, {"measurement": "macrophage numbers in liver, F4/80 immunostaining", "setting": "[1]; liver, vs PBS control", "value": "large increase in macrophage numbers"}, {"measurement": "numbers of macrophages in the spleen, csf1r-EGFP reporter fluorescence", "setting": "[1]; spleen, treated vs control", "value": "greatly increased fluorescence"}, {"measurement": "macrophage numbers and F4/80 intensity in spleen, immunostaining", "setting": "[1]; spleen, vs PBS control", "value": "large increase in macrophage numbers and also intensity of F4/80"}, {"measurement": "phagocytic ability of the liver, clearance of fluorescent latex microbeads from the circulation", "setting": "C57BI6 male mice; 0.75 mg/kg, following partial hepatectomy", "value": "dramatically enhanced"}, {"measurement": "fluorescent intensity of whole liver, ex vivo imaging", "setting": "C57BI6 male mice; 15 minutes after bead injection, following partial hepatectomy", "value": "increased fluorescent intensity"}, {"measurement": "MARCO gene expression, whole liver", "setting": "C57BI6 male mice; [4]", "value": "upregulation"}, {"measurement": "MSR1 (macrophage scavenger receptor 1) gene expression, whole liver", "setting": "C57BI6 male mice; [4]", "value": "upregulation"}]}
